For nine substances, Kd results are on record in article PMC2522368 (Molecular cell, 2008).

For assay [1], the target named is talin-R4 (1654-1848) (UniProt P26039). The assay is described as follows: SPR. On the technique in general: Surface plasmon resonance follows binding to a sensor surface in real time, without labels.
In assay [2] the target is talin-RM (1654-2344) (UniProt P26039). The assay is described as follows: SPR.
The target in assay [3] is talin-R6-R8 (1984-2344) (UniProt P26039). The assay is described as follows: SPR.
Chain of talin-R6-R8 (1984-2344) (P26039 1984-2344): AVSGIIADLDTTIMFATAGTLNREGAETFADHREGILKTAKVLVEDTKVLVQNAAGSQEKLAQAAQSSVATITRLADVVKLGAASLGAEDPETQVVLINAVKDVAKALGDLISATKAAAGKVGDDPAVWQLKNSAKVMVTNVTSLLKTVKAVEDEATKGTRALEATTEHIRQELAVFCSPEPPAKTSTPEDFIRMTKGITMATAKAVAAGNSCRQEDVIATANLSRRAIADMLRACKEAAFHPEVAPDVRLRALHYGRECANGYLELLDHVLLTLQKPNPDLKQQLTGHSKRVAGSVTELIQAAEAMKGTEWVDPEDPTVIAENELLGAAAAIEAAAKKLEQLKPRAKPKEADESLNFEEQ
Assay [4] concerns the target talin-H (Mus musculus, UniProt P26039). The assay is described as follows: SPR, lipid immobilised on biotin chip, talin-H injected. It counts as binding. The conditions noted are these: labelled compound; 10 mM Hepes, pH 7.4, 37 °C.
For assay [5], the target named is PIPKIγ peptide (Mus musculus) (UniProt O70161). The note with it: cited from earlier work.
Chain of PIPKIγ peptide (Mus musculus) (O70161 whole entry): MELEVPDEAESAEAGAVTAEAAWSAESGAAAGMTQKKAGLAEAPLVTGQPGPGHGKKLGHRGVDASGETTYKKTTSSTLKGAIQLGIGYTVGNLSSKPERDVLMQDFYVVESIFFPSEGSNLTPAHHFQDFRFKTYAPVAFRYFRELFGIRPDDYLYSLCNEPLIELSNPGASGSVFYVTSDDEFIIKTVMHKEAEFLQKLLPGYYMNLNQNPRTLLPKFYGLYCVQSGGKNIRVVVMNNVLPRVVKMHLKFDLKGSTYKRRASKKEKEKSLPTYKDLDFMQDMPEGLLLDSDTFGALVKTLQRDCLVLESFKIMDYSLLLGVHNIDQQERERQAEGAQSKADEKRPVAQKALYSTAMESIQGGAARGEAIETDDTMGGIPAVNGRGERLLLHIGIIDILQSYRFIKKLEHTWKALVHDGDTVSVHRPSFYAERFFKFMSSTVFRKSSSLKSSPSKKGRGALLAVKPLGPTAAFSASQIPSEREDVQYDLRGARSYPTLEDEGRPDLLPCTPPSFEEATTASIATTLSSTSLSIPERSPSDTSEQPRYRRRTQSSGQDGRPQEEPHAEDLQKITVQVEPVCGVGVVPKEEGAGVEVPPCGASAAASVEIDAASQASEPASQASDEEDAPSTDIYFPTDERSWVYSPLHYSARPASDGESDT

Chain of talin-RM (1654-2344) (P26039 1654-2344): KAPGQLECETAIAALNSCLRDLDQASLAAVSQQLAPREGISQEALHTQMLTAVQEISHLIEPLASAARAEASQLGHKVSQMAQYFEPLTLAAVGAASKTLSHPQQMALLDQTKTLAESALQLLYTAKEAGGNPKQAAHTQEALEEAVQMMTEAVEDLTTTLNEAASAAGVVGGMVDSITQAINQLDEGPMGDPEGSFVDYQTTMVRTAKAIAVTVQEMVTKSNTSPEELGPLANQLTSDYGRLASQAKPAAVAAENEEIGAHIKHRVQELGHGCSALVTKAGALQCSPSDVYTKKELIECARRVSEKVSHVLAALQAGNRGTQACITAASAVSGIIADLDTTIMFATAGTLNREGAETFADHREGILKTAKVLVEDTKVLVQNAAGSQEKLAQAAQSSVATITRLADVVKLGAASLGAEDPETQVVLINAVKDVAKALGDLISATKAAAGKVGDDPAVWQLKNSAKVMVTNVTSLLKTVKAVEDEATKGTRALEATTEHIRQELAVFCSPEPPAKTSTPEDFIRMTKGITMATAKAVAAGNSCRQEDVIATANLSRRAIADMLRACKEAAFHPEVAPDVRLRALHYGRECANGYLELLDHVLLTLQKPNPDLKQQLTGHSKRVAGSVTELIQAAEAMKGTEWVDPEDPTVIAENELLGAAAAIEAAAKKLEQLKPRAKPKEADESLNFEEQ
Chain of talin-PTB PTB (P26039 309-405): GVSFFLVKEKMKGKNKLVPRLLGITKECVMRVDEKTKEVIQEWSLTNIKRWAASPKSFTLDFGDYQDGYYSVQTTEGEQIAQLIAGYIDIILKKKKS
Chain of talin-R4 (1654-1848) (P26039 1654-1848): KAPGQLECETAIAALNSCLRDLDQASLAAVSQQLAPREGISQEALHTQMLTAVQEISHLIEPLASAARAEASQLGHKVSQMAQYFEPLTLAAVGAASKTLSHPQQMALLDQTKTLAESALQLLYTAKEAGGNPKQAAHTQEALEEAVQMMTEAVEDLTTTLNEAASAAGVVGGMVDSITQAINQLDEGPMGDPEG
Chain of talin-H (P26039 1-433): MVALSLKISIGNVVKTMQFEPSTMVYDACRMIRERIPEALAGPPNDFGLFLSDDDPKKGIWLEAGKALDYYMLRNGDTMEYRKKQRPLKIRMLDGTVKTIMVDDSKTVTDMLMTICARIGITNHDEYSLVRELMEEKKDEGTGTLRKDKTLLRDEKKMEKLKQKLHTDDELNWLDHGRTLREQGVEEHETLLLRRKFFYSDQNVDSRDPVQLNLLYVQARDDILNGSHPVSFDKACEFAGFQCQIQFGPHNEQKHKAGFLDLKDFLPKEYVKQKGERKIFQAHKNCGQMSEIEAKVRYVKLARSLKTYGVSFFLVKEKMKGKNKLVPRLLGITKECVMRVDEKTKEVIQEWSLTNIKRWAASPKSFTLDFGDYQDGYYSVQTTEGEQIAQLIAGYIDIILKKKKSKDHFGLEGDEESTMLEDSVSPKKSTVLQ

“WT talin-PTB (talin-F3/PTB, 306-405) (from UniProt P26039 306-405) (domain or fragment)”: the dissociation constant (Kd) is 3.6 µM in assay [1], 0.577 µM in assay [2] and 78 µM in assay [3].
On to biotinylated C6-PIP2, for which the equilibrium dissociation constant (Kd) in assay [4] is around 89.2 nM.
Substance “talin-PTB L325R (from UniProt P26039 306-405) (domain or fragment)” gave a Kd in assay [2] of 0.667 µM.
As to “talin-PTB M319A (from UniProt P26039 306-405) (domain or fragment)”, in assay [2], the dissociation constant Kd was found to be 80.9 µM.
Take talin-PTB PTB (from UniProt P26039): the Kd in assay [5] is 270 nM.
As to “talin-PTB Q381V (from UniProt P26039 306-405) (domain or fragment)”, the Kd in assay [2] came out at 314 µM.
Substance “talin-PTB S365D (from UniProt P26039 306-405) (domain or fragment)” registered a Kd in assay [2] of 1660 µM.
Same read-out and setting: to “talin-PTB S379R (from UniProt P26039 306-405) (domain or fragment)” belongs 625 µM; to “talin-PTB W359A (from UniProt P26039 306-405) (domain or fragment)”, 0.529 µM.

A word on the Kd: it is a measure of binding affinity in units of concentration.
